Laboratory results published in patent publication US20220339289A1 (Bicycle, published 2022).
Starred links: 1 amine or outer side, 2 acyl side, 3 side chain; linkers in the order of their positions; H or OH if unused. Positions of bridges follow the written chain, without caps; N, C: chain ends. Non-standard residues stand in square brackets, D forms with d. Primed or numbered codes have the meaning given here. No end group written: not given here. *: point of attachment. TCAZ″ = 1,1',1''-(1,4,7-triazonane-1,4,7-triyl)tris(2-chloroethan-1-one) scaffold, O=C(C[*:1])N1CCN(C(=O)C[*:2])CCN(C(=O)C[*:3])CC1; TCAZ = 1,1',1''-(1,4,7-triazonane-1,4,7-triyl)tris(2-chloroethan-1-one); TATA = O=C(CC[*:1])N1CN(C(=O)CC[*:2])CN(C(=O)CC[*:3])C1; 1Nal = N[C@@H](Cc1cccc2ccccc12)C(=O)O; Pent4ynoyl = C#CCCC(=O)*

Experiments:
[1] = molecular target: T1, Recombinant biotinylated human P-Selectin protein (human, UniProt P16109 42-771, limits assumed, biotinylated (site not stated)); assay: SPR (Biacore), biotinylated human P-selectin captured on streptavidin chip, peptide as analyte; peptide BCY12261, a separate peptide number
T1 sequence (looked up): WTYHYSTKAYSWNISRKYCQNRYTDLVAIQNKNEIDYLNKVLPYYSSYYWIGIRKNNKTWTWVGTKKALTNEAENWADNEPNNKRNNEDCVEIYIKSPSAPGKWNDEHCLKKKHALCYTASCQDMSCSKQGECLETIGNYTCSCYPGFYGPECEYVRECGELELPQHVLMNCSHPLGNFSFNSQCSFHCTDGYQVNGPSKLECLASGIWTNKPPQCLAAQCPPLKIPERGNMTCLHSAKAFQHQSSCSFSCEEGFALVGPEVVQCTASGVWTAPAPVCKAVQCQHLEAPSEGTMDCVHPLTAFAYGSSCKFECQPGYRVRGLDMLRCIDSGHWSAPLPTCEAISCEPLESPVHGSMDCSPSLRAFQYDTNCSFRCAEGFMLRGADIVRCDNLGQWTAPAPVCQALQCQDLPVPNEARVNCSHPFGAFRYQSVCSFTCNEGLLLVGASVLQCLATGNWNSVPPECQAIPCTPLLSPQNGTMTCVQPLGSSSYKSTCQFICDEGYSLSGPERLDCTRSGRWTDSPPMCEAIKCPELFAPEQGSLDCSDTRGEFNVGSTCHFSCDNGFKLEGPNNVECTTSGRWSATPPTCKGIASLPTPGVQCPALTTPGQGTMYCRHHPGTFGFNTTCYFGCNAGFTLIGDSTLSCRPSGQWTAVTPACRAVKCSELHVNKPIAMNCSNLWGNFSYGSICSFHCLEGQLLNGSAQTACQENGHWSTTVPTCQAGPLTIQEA
Method: (§1) Biacore experiments were performed to determine ka (M−1s−1), kd (s−1), KD (nM) values of monomeric peptides binding to human Selectin proteins. Recombinant biotinylated human P-Selectin protein was used. For analysis of binding, either a Biacore 3000 or 5200 instrument was used with a CMS sensor chip (GE Healthcare). For sensor chip surface preparation, streptavidin was immobilized on the chip using standard amine-coupling chemistry at 25° C. with HBS-N (10 mM HEPES, 0.15 M NaCl, pH 7.4) as the running buffer. The carboxymethyl dextran surface was activated with a 12 min injection of a 1:1 ratio of 0.4 M 1-ethyl-3-(3-dim ethyl aminopropyl) carbodiimide hydrochloride (EDC)/0.1 M N-hydroxy succinimide (NHS) at a flow rate of 10 μl/min. For capture of streptavidin, protein was diluted to 0.2 mg/ml in 10 mM sodium acetate (pH 4.5) and captured by injecting 70 μl onto the activated chip surface. Residual activated groups were blocked with a 7 min injection of 1 M ethanolamine (pH 8.5). Biotinylated protein stock was diluted 1:100 in HBS-N and captured on one flow cell at 5 μl/min to a level of 1000-1500 RU. Buffer was changed to PBS/0.05% Tween 20 and a dilution series of the peptides was prepared in this buffer with a final DMSO concentration of 0.5%. […] In all cases a titration was performed with either seven 2-fold dilutions or five 3-fold dilutions. […]

[2] = molecular target: T1, Recombinant biotinylated human …; assay: SPR (Biacore), biotinylated human P-selectin captured on streptavidin chip, peptide as analyte; peptide BCY10194 (A-(SEQ ID NO: 6)-A)
Method: as §1

[3] = molecular target: T1, Recombinant biotinylated human …; assay: SPR (Biacore), biotinylated human P-selectin captured on streptavidin chip, peptide as analyte
Method: Biacore experiments were performed to determine ka (M−1s−1), kd (s−1), KD (nM) values of monomeric peptides binding to human Selectin proteins. Recombinant biotinylated human P-Selectin protein was used. For analysis of binding, either a Biacore 3000 or 5200 instrument was used with a CMS sensor chip (GE Healthcare). For sensor chip surface preparation, streptavidin was immobilized on the chip using standard amine-coupling chemistry at 25° C. with HBS-N (10 mM HEPES, 0.15 M NaCl, pH 7.4) as the running buffer. The carboxymethyl dextran surface was activated with a 12 min injection of a 1:1 ratio of 0.4 M 1-ethyl-3-(3-dim ethyl aminopropyl) carbodiimide hydrochloride (EDC)/0.1 M N-hydroxy succinimide (NHS) at a flow rate of 10 μl/min. For capture of streptavidin, protein was diluted to 0.2 mg/ml in 10 mM sodium acetate (pH 4.5) and captured by injecting 70 μl onto the activated chip surface. Residual activated groups were blocked with a 7 min injection of 1 M ethanolamine (pH 8.5). Biotinylated protein stock was diluted 1:100 in HBS-N and captured on one flow cell at 5 μl/min to a level of 1000-1500 RU. Buffer was changed to PBS/0.05% Tween 20 and a dilution series of the peptides was prepared in this buffer with a final DMSO concentration of 0.5%. […] In all cases a titration was performed with either seven 2-fold dilutions or five 3-fold dilutions. The SPR analysis was run at 25° C. with a flow rate of 50-80 μl/min with 60 seconds association and a suitable disassociation period (100-900 seconds). Data were corrected for DMSO excluded volume effects. All data were double-referenced for blank injections and reference surface using standard processing procedures and data processing and kinetic fitting were performed using Scrubber software, version 2.0c (BioLogic Software). Data were fitted using mass transport model allowing for mass transport effects where appropriate.

[4] = molecular target: T1, Recombinant biotinylated human …; assay: inhibition of 5 nM P-selectin binding to HL-60 cells (PSGL1), mirrorball cytometer, geomean of n=3
Method: Bicycle test samples, SelG1 (Crizanlizumab) were serially diluted maintaining 0.5% DMSO in assay buffer (25 mM HEPES, 121 mM NaCl, 5.4 mM KCl, 0.8 mM MgCl₂, 1.8 mM CaCl₂), 6 mM NaHCO₂, 5.5 mM glucose, 1% BSA, pH7.4) and transferred to 384 well clear bottom plates (Corning, 3712) with a final volume of 6 μL. […], of P-Selectin in imaging buffer (25 mM HEPES, 121 mM NaCl, 5.4 mM KCl, 0.8 mM MgCl₂, 1.8 mM CaCl₂), 6 mM NaHCO₂, 5.5 mM glucose, pH7.4) was added to give a 5 nM final concentration and incubated at room temperature for 15 minutes. HL-60 cells (ATCC, CCL-240) mixed with 1 μg/mL far red labelled wheat germ agglutinin (WGA, ThermoFisher W21404) and 1 μg/mL AlexaFluor 488-streptavidin (Invitrogen S11223) were added to the plate and incubated for 2 hours at room temperature in the absence of light. Staining and antibody binding were quantified by simultaneously scanning the microplates with 488 nm and 640 nm lasers on a mirrorball microplate cytometer, AF488 on FL2 triggering on AF647-WGA on FL4. Data was analysed in Dotmatics, using a four parameter logistic fit to generate IC50 values and % response. Percent inhibition was calculated using 100−% response at top concentration.

[5] = molecular target: T1, Recombinant biotinylated human …; assay: SPR (Biacore), biotinylated human P-selectin captured on streptavidin chip, peptide as analyte; peptide BCY5458, a separate peptide number
Method: as §1

[6] = molecular target: T1, Recombinant biotinylated human …; assay: SPR (Biacore), biotinylated human P-selectin captured on streptavidin chip, peptide as analyte; peptide BCY5463, a separate peptide number
Method: as §1

[7] = molecular target: T1, Recombinant biotinylated human …; assay: SPR (Biacore), biotinylated human P-selectin captured on streptavidin chip, peptide as analyte; peptide BCY5454, a separate peptide number
Method: as §1

[8] = molecular target: T1, Recombinant biotinylated human …; assay: SPR (Biacore), biotinylated human P-selectin captured on streptavidin chip, peptide as analyte; peptide BCY12257, a separate peptide number
Method: as §1

[9] = molecular target: T1, Recombinant biotinylated human …; assay: SPR (Biacore), biotinylated human P-selectin captured on streptavidin chip, peptide as analyte; peptide BCY5459, a separate peptide number
Method: as §1

[10] = molecular target: T1, Recombinant biotinylated human …; assay: SPR (Biacore), biotinylated human P-selectin captured on streptavidin chip, peptide as analyte; peptide BCY5462, a separate peptide number
Method: as §1

[11] = molecular target: T1, Recombinant biotinylated human …; assay: SPR (Biacore), biotinylated human P-selectin captured on streptavidin chip, peptide as analyte; peptide BCY12259, a separate peptide number
Method: as §1

B1: BCY12261 (peptide)
peptide: ACDADWCDVPSLPCAK(Pent4ynoyl)-NH2
modifications: linker 2-7-14 via TCAZ″; not fully specified; also: tetramer of 4 copies via central hinge A (Tet) and spacer S1A n=23 joined to K(Pya)
[1]
  Kd: 0.019 nM

## ACYMEWCDVTDYGCA-NH2 (linker 2-7-14 via TATA, Monomeric bicyclic peptide) [BCY10194]
[2]
  Kd: 9500 nM

## ACDADWCDVPSLPCA-NH2 (linker 2-7-14 via TCAZ″, Monomeric bicyclic peptide) [BCY11648]
[3]
  Kd: 128 nM
[4]
  IC50: > 117 nM
  Inhibition at top concentration (%): 37%

## Ac-ACYME[1Nal]CDVTDYGCA-NH2 (linker 2-7-14 via TATA, Monomeric bicyclic peptide) [BCY11279]
[3]
  Kd: 690 nM
[4]
  IC50: > 3540 nM
  Inhibition at top concentration (%): 24%

B2: SelG1 (Crizanlizumab) (antibody, V domains shown)
VH: QVQLVQSGAEVKKPGASVKVSCKVSGYTFTSYDINWVRQAPGKGLEWMGWIYPGDGSIKYNEKFKGRVTMTVDKSTDTAYMELSSLRSEDTAVYYCARRGEYGNYEGAMDYWGQGTLVTVSS
VL: DIQMTQSPSSLSASVGDRVTITCKASQSVDYDGHSYMNWYQQKPGKAPKLLIYAASNLESGVPSRFSGSGSGTDFTLTISSLQPEDFATYYCQQSDENPLTFGGGTKVEIK
[4]
  IC50: 4.75 nM
  Inhibition at top concentration (%): 96%

B3: BCY5458 (peptide)
peptide: Pent4ynoyl-ACYMEWCDVTDYGCA-NH2
modifications: linker 2-7-14 via TATA; also: trimer of 3 copies via central hinge B (TCA) and spacer S1A n=10 joined to N-terminal Pya
[5]
  Kd: 400 nM

B4: BCY5463 (peptide)
peptide: Pent4ynoyl-ACYMEWCDVTDYGCA-NH2
modifications: linker 2-7-14 via TATA; also: tetramer of 4 copies via central hinge A (Tet) and spacer S1A n=23 joined to N-terminal Pya
[6]
  Kd: 53 nM

B5: BCY5454 (peptide)
peptide: Pent4ynoyl-ACYMEWCDVTDYGCA-NH2
modifications: linker 2-7-14 via TATA; also: tandem dimer of 2 copies via central hinge C (GTA) and spacer S1A n=10 joined to N-terminal Pya
[7]
  Kd: 400 nM

B6: BCY9717 (peptide)
peptide: Ac-CYMEWCDVTDYGC-NH2
modifications: linker 1-6-13 via TATA
notes: Monomeric bicyclic peptide; also called BCY09717
[3]
  Kd: 7600 nM
[4]
  IC50: > 10900 nM
  Inhibition at top concentration (%): 20%

B7: BCY12257 (peptide)
peptide: ACDADWCDVPSLPCAK(Pent4ynoyl)-NH2
modifications: linker 2-7-14 via TCAZ″; not fully specified; also: tandem dimer of 2 copies via central hinge C (GTA) and spacer S1A n=23 joined to K(Pya)
[8]
  Kd: 11.6 nM

B8: BCY5459 (peptide)
peptide: Pent4ynoyl-ACYMEWCDVTDYGCA-NH2
modifications: linker 2-7-14 via TATA; also: trimer of 3 copies via central hinge B (TCA) and spacer S1A n=23 joined to N-terminal Pya
[9]
  Kd: 169 nM

## ACDAD[1Nal]CDVPSLPCA-NH2 (linker 2-7-14 via TCAZ, Monomeric bicyclic peptide) [BCY12027]
[3]
  Kd: 5.36 nM
[4]
  IC50: > 36.8 nM
  Inhibition at top concentration (%): 36%

B9: BCY5462 (peptide)
peptide: Pent4ynoyl-ACYMEWCDVTDYGCA-NH2
modifications: linker 2-7-14 via TATA; also: tetramer of 4 copies via central hinge A (Tet) and spacer S1A n=10 joined to N-terminal Pya
[10]
  Kd: 88 nM

B10: BCY12259 (peptide)
peptide: ACDADWCDVPSLPCAK(Pent4ynoyl)-NH2
modifications: linker 2-7-14 via TCAZ″; not fully specified; also: trimer of 3 copies via central hinge B (TCA) and spacer S1A n=23 joined to K(Pya)
[11]
  Kd: 0.233 nM
